From US20110014224A1

Biological target: HLA-B1501 (human)
Experiment: competition with radiolabeled probe peptide for purified HLA, plate capture, cpm

AVINTTCNYGQ (modifications not checked) [Mtb8.4 5-15 peptide …]
IC50: 10 nM
